What was measured:
[1] = target: Env of HIV-1 strain X2088 (pseudovirus) (HIV-1)
[2] = target: Env of HIV-1 strain JRFL (pseudovirus) (HIV-1)
[3] = target: Env of HIV-1 strain RHPA (pseudovirus) (HIV-1)
[4] = target: Env of HIV-1 strain BG 1168 (pseudovirus) (HIV-1)
[5] = target: Env of HIV-1 strain 7165.18 (pseudovirus) (HIV-1)
[6] = target: Env of HIV-1 strain QH0515 (pseudovirus) (HIV-1)
[7] = target: Env of HIV-1 strain CNE4 (pseudovirus) (HIV-1)
[8] = target: Env of HIV-1 strain T251-18 (pseudovirus) (HIV-1)
[9] = target: Env of HIV-1 strain X2088 (pseudovirus) (HIV-1); remark: listed apart in the source

monoclonal antibody PG16
neutralization IC80 (3817.v2.c59 (HIV-1)): 0.051 µg/mL | neutralization IC80 (ZM53.12 (HIV-1)): 0.103 µg/mL | neutralization IC80 (ZM233.6 (HIV-1)): < 0.023 µg/mL | neutralization IC80 [1]: > 50 µg/mL | neutralization IC80 (3337_V2_C6 (HIV-1)): > 50 µg/mL | neutralization IC80 (NKU3006.ec1 (HIV-1)): > 50 µg/mL | neutralization IC80 (57128.vrc15 (HIV-1)): > 50 µg/mL | neutralization IC80 (3326_V4_C3 (HIV-1)): 0.221 µg/mL | neutralization IC80 [2]: > 50 µg/mL | neutralization IC80 (BL01.DG (HIV-1)): > 50 µg/mL | neutralization IC80 (CAAN.A2 (HIV-1)): > 50 µg/mL | neutralization IC80 (CNE10 (HIV-1)): > 50 µg/mL | neutralization IC80 [3]: > 50 µg/mL | neutralization IC80 (AC10.29 (HIV-1)): 0.088 µg/mL | neutralization IC80 (HXB2.DG (HIV-1)): > 50 µg/mL | neutralization IC80 (T257-31 (HIV-1)): 0.021 µg/mL | neutralization IC80 (BaL.26 (HIV-1)): > 50 µg/mL | neutralization IC80 [4]: > 50 µg/mL | neutralization IC80 (HT593.1 (HIV-1)): 13.7 µg/mL | neutralization IC80 (T280-5 (HIV-1)): 4.53 µg/mL | neutralization IC80 (CNE57 (HIV-1)): > 50 µg/mL | neutralization IC80 (JRCSF.JB (HIV-1)): 0.015 µg/mL | neutralization IC80 (QH0692.42 (HIV-1)): > 50 µg/mL | neutralization IC80 (Bal.01 (HIV-1)): > 50 µg/mL | neutralization IC80 (SS1196.01 (HIV-1)): 2.9 µg/mL | neutralization IC80 (MN.3 (HIV-1)): > 50 µg/mL | neutralization IC80 [5]: > 50 µg/mL | neutralization IC80 (TRO.11 (HIV-1)): > 50 µg/mL | neutralization IC80 (CNE12 (HIV-1)): > 50 µg/mL | neutralization IC80 (T250-4 (HIV-1)): 1 ng/mL | neutralization IC80 (YU2.DG (HIV-1)): > 50 µg/mL | neutralization IC80 (T278-50 (HIV-1)): > 50 µg/mL | neutralization IC80 (89.6.DG (HIV-1)): > 50 µg/mL | neutralization IC80 (BX08_16 (HIV-1)): 38.8 µg/mL | neutralization IC80 (T33-7 (HIV-1)): 0.279 µg/mL | neutralization IC80 (SC422.8 (HIV-1)): > 50 µg/mL | neutralization IC80 (DJ263.8 (HIV-1)): 1.11 µg/mL | neutralization IC80 [6]: > 50 µg/mL | neutralization IC80 (TRJO.58 (HIV-1)): 13.9 µg/mL | neutralization IC80 (WITO.33 (HIV-1)): < 0.023 µg/mL | neutralization IC80 (T266-60 (HIV-1)): > 50 µg/mL | neutralization IC80 (CH038.12 (HIV-1)): > 50 µg/mL | neutralization IC80 (REJO.67 (HIV-1)): 0.4 µg/mL | neutralization IC80 (CNE14 (HIV-1)): > 50 µg/mL | neutralization IC80 (PVO.04 (HIV-1)): > 50 µg/mL | neutralization IC80 (ADA.DG (HIV-1)): 0.458 µg/mL | neutralization IC80 (T253-11 (HIV-1)): > 50 µg/mL | neutralization IC80 (BR07.DG (HIV-1)): > 50 µg/mL | neutralization IC80 (THRO.18 (HIV-1)): > 50 µg/mL | neutralization IC80 (CH070.1 (HIV-1)): 0.013 µg/mL | neutralization IC80 [7]: > 50 µg/mL | neutralization IC80 [8]: > 50 µg/mL | neutralization IC80 (T255-34 (HIV-1)): 0.079 µg/mL | neutralization IC80 (HO86.8 (HIV-1)): 0.02 µg/mL | neutralization IC80 (SF162.LS (HIV-1)): > 50 µg/mL | neutralization IC50 (231965.c1): 4.72 µg/mL | neutralization IC50 (3337.V2.C6): > 50 µg/mL | neutralization IC50 (3326.V4.C3): < 0.023 µg/mL | neutralization IC50 (NKU3006.ec1): > 50 µg/mL | neutralization IC50 [9]: > 50 µg/mL | neutralization IC50 (ZM214.15): > 50 µg/mL | neutralization IC50 (57128.vrc15): 0.162 µg/mL | neutralization IC50 (3817.v2.c59): 6 ng/mL | neutralization IC50 (ZM215.8): > 50 µg/mL

monoclonal antibody PG9
neutralization IC80 (3817.v2.c59 (HIV-1)): 0.028 µg/mL | neutralization IC80 (ZM53.12 (HIV-1)): 0.17 µg/mL | neutralization IC80 (ZM233.6 (HIV-1)): < 0.023 µg/mL | neutralization IC80 [1]: > 50 µg/mL | neutralization IC80 (3337_V2_C6 (HIV-1)): > 50 µg/mL | neutralization IC80 (NKU3006.ec1 (HIV-1)): > 50 µg/mL | neutralization IC80 (57128.vrc15 (HIV-1)): 0.665 µg/mL | neutralization IC80 (3326_V4_C3 (HIV-1)): 0.111 µg/mL | neutralization IC80 [2]: > 50 µg/mL | neutralization IC80 (BL01.DG (HIV-1)): > 50 µg/mL | neutralization IC80 (CAAN.A2 (HIV-1)): > 50 µg/mL | neutralization IC80 (CNE10 (HIV-1)): 1.61 µg/mL | neutralization IC80 [3]: > 50 µg/mL | neutralization IC80 (AC10.29 (HIV-1)): 0.306 µg/mL | neutralization IC80 (HXB2.DG (HIV-1)): 10.2 µg/mL | neutralization IC80 (T257-31 (HIV-1)): 0.075 µg/mL | neutralization IC80 (BaL.26 (HIV-1)): 0.365 µg/mL | neutralization IC80 [4]: > 50 µg/mL | neutralization IC80 (HT593.1 (HIV-1)): 5.41 µg/mL | neutralization IC80 (T280-5 (HIV-1)): 1.94 µg/mL | neutralization IC80 (CNE57 (HIV-1)): > 50 µg/mL | neutralization IC80 (JRCSF.JB (HIV-1)): 0.009 µg/mL | neutralization IC80 (QH0692.42 (HIV-1)): > 50 µg/mL | neutralization IC80 (Bal.01 (HIV-1)): 1.52 µg/mL | neutralization IC80 (SS1196.01 (HIV-1)): 3.08 µg/mL | neutralization IC80 (MN.3 (HIV-1)): > 50 µg/mL | neutralization IC80 [5]: > 50 µg/mL | neutralization IC80 (TRO.11 (HIV-1)): > 50 µg/mL | neutralization IC80 (CNE12 (HIV-1)): > 50 µg/mL | neutralization IC80 (T250-4 (HIV-1)): 1 ng/mL | neutralization IC80 (YU2.DG (HIV-1)): > 50 µg/mL | neutralization IC80 (T278-50 (HIV-1)): 6.06 µg/mL | neutralization IC80 (89.6.DG (HIV-1)): > 50 µg/mL | neutralization IC80 (BX08_16 (HIV-1)): 0.273 µg/mL | neutralization IC80 (T33-7 (HIV-1)): 0.087 µg/mL | neutralization IC80 (SC422.8 (HIV-1)): 38.6 µg/mL | neutralization IC80 (DJ263.8 (HIV-1)): 0.733 µg/mL | neutralization IC80 [6]: > 50 µg/mL | neutralization IC80 (TRJO.58 (HIV-1)): 3.22 µg/mL | neutralization IC80 (WITO.33 (HIV-1)): 0.03 µg/mL | neutralization IC80 (T266-60 (HIV-1)): > 50 µg/mL | neutralization IC80 (CH038.12 (HIV-1)): > 50 µg/mL | neutralization IC80 (REJO.67 (HIV-1)): 0.08 µg/mL | neutralization IC80 (CNE14 (HIV-1)): > 50 µg/mL | neutralization IC80 (PVO.04 (HIV-1)): 37.1 µg/mL | neutralization IC80 (ADA.DG (HIV-1)): > 50 µg/mL | neutralization IC80 (T253-11 (HIV-1)): 1.72 µg/mL | neutralization IC80 (BR07.DG (HIV-1)): > 50 µg/mL | neutralization IC80 (THRO.18 (HIV-1)): > 50 µg/mL | neutralization IC80 (CH070.1 (HIV-1)): 0.024 µg/mL | neutralization IC80 [7]: > 50 µg/mL | neutralization IC80 [8]: > 50 µg/mL | neutralization IC80 (T255-34 (HIV-1)): 0.114 µg/mL | neutralization IC80 (HO86.8 (HIV-1)): 0.125 µg/mL | neutralization IC80 (SF162.LS (HIV-1)): > 50 µg/mL | neutralization IC50 (231965.c1): 1.51 µg/mL | neutralization IC50 (3337.V2.C6): > 50 µg/mL | neutralization IC50 (3326.V4.C3): < 0.023 µg/mL | neutralization IC50 (NKU3006.ec1): > 50 µg/mL | neutralization IC50 [9]: > 50 µg/mL | neutralization IC50 (ZM214.15): > 50 µg/mL | neutralization IC50 (57128.vrc15): 0.104 µg/mL | neutralization IC50 (3817.v2.c59): 7 ng/mL | neutralization IC50 (ZM215.8): < 0.023 µg/mL

From patent publication US20140348865A1, “[…] ON AN HIV-1 V1V2 SITE-OF-VULNERABILITY” (The United States of America, as represented by the …, priority 2011, published 2014)
